Data as given in patent US20240325526A1.

T1: IL1B_FL (Mus musculus wild-type pro-IL1β)
T1 chain: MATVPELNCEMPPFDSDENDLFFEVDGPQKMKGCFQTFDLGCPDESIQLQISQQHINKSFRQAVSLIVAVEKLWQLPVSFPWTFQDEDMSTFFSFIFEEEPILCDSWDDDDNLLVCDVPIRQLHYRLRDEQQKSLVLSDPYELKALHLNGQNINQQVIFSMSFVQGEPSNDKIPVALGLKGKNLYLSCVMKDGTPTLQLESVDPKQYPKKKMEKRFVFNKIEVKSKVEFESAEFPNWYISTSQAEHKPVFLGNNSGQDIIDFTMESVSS


Key:
[1] = biological target: IL1B_FL (Mus musculus wild-type pro-IL1β) (Mus musculus) (UniProt P10749); test: cell-based or functional assay
[2] = biological target: T1, IL1B_FL (Mus musculus wild-type …)
[3] = biological target: hIL1B_FL (human wild-type pro-IL1β)

Molecule	ability to process pro-IL1β (data not shown) [2]	ability to process pro-IL1β (data not shown) [3]	further results
CASP1_RV2 (constitutively active murine caspase-1, p10 and p20 domain reversal, N-terminal p20 remnant removed) (from UniProt P29452 92-296) (enzyme)			potency against CASP1 WT; IL-1β and LDH activity in supernatants of B16-F10 cells co-transfected with pro-IL1β plasmid [1]: 30 fold
CASP1_RV2_D143A (protein) MSEEDFLTDAIFEDDGIKKAHIEKDFIAFCSSTPDNVSWRHPVRGSLFIESLIKHMKEYAWSCDLEDIFRKVRFSFEQPEFRLQMPTADRVTLTKRFYLFPGHLLVCDVPIRAPSAETFVATEDSKGGHPSSSETKEEQNKEAGTFPGLTGTLKFCPLEKAQKLWKENPSEIYPIMNTTTRTRLALIICNTEFQHLSPRVGAQVDLREMKLLLEDLGYTVKVKENLTALEMVKEVKEFAACPEHKTSDSTFLVFMSHGIQEGICGTTYSNEVSDILKVDTIFQMMNTLKCPSLKDKPKVIIIQACRGEKQGVVLLKD	did not significantly affect their ability to process pro-IL1β		
CASP1_RV2_D108A_D124A_D143A (protein) MSEEDFLTDAIFEDDGIKKAHIEKDFIAFCSSTPDNVSWRHPVRGSLFIESLIKHMKEYAWSCDLEDIFRKVRFSFEQPEFRLQMPTADRVTLTKRFYLFPGHLLVCAVPIRAPSAETFVATEASKGGHPSSSETKEEQNKEAGTFPGLTGTLKFCPLEKAQKLWKENPSEIYPIMNTTTRTRLALIICNTEFQHLSPRVGAQVDLREMKLLLEDLGYTVKVKENLTALEMVKEVKEFAACPEHKTSDSTFLVFMSHGIQEGICGTTYSNEVSDILKVDTIFQMMNTLKCPSLKDKPKVIIIQACRGEKQGVVLLKD	did not significantly affect their ability to process pro-IL1β		
hCASP1_RV2_D108A (protein) MGNLSLPTTEEFEDDAIKKAHIEKDFIAFCSSTPDNVSWRHPTMGSVFIGRLIEHMQEYACSCDVEEIFRKVRFSFEQPDGRAQMPTTERVTLTRCFYLFPGHAYVHAAPVRDQTSGNYLNMQDSQGVLSSFPAPQAVQDNPAMPTSSGSEGNVKLCSLEEAQRIWKQKSAEIYPIMDKSSRTRLALIICNEEFDSIPRRTGAEVDITGMTMLLQNLGYSVDVKKNLTASDMTTELEAFAHRPEHKTSDSTFLVFMSHGIREGICGKKHSEQVPDILQLNAIFNMLNTKNCPSLKDKPKVIIIQACRGDSPGVVWFKD		did not significantly affect their ability to process pro-IL1β	
hCASP1_RV2_D140A (protein) MGNLSLPTTEEFEDDAIKKAHIEKDFIAFCSSTPDNVSWRHPTMGSVFIGRLIEHMQEYACSCDVEEIFRKVRFSFEQPDGRAQMPTTERVTLTRCFYLFPGHAYVHDAPVRDQTSGNYLNMQDSQGVLSSFPAPQAVQANPAMPTSSGSEGNVKLCSLEEAQRIWKQKSAEIYPIMDKSSRTRLALIICNEEFDSIPRRTGAEVDITGMTMLLQNLGYSVDVKKNLTASDMTTELEAFAHRPEHKTSDSTFLVFMSHGIREGICGKKHSEQVPDILQLNAIFNMLNTKNCPSLKDKPKVIIIQACRGDSPGVVWFKD		did not significantly affect their ability to process pro-IL1β	
hCASP1_RV2_D124A (protein) MGNLSLPTTEEFEDDAIKKAHIEKDFIAFCSSTPDNVSWRHPTMGSVFIGRLIEHMQEYACSCDVEEIFRKVRFSFEQPDGRAQMPTTERVTLTRCFYLFPGHAYVHDAPVRDQTSGNYLNMQASQGVLSSFPAPQAVQDNPAMPTSSGSEGNVKLCSLEEAQRIWKQKSAEIYPIMDKSSRTRLALIICNEEFDSIPRRTGAEVDITGMTMLLQNLGYSVDVKKNLTASDMTTELEAFAHRPEHKTSDSTFLVFMSHGIREGICGKKHSEQVPDILQLNAIFNMLNTKNCPSLKDKPKVIIIQACRGDSPGVVWFKD		did not significantly affect their ability to process pro-IL1β	
CASP1_RV2_D108A (protein) MSEEDFLTDAIFEDDGIKKAHIEKDFIAFCSSTPDNVSWRHPVRGSLFIESLIKHMKEYAWSCDLEDIFRKVRFSFEQPEFRLQMPTADRVTLTKRFYLFPGHLLVCAVPIRAPSAETFVATEDSKGGHPSSSETKEEQNKEDGTFPGLTGTLKFCPLEKAQKLWKENPSEIYPIMNTTTRTRLALIICNTEFQHLSPRVGAQVDLREMKLLLEDLGYTVKVKENLTALEMVKEVKEFAACPEHKTSDSTFLVFMSHGIQEGICGTTYSNEVSDILKVDTIFQMMNTLKCPSLKDKPKVIIIQACRGEKQGVVLLKD	did not significantly affect their ability to process pro-IL1β		
CASP1_RV2_D124A (protein) MSEEDFLTDAIFEDDGIKKAHIEKDFIAFCSSTPDNVSWRHPVRGSLFIESLIKHMKEYAWSCDLEDIFRKVRFSFEQPEFRLQMPTADRVTLTKRFYLFPGHLLVCDVPIRAPSAETFVATEASKGGHPSSSETKEEQNKEDGTFPGLTGTLKFCPLEKAQKLWKENPSEIYPIMNTTTRTRLALIICNTEFQHLSPRVGAQVDLREMKLLLEDLGYTVKVKENLTALEMVKEVKEFAACPEHKTSDSTFLVFMSHGIQEGICGTTYSNEVSDILKVDTIFQMMNTLKCPSLKDKPKVIIIQACRGEKQGVVLLKD	did not significantly affect their ability to process pro-IL1β		
